Experimental data published in US20190359693A1 (Janssen / Centocor, published 2019).
Read-outs that look alike come from different tables or passages of the source.

Legend:
[1] = target: hemagglutinin (HA) of influenza virus H1N1 A/California/07/09 (influenza A virus); experiment: cell-based or functional assay
[2] = target: hemagglutinin (HA) of influenza virus H5N1 A/Vietnam/1194/04 (influenza A virus); experiment: cell-based or functional assay
[3] = target: hemagglutinin (HA) of influenza virus H1N1 A/Puerto Rico/8/34-MA (influenza A virus); experiment: cell-based or functional assay
[4] = target: hemagglutinin (HA) of influenza virus H3N2 A/Wisconsin/67/05 (influenza A virus); experiment: cell-based or functional assay
[5] = target: recombinant HA of H1N1 A/New Caledonia/20/1999 (influenza A virus, UniProt Q289M7 18-565); experiment: biolayer interferometry (Octet), steady-state fit, geometric mean
HA of H3N2 A/HK/1/68-MA [6] = target: HA of H3N2 A/HK/1/68-MA (influenza A virus); experiment: cell-based or functional assay
[7] = target: HA of H1N1 A/Puerto Rico/8/34-MA (influenza A virus); experiment: cell-based or functional assay
[8] = target: HA of H3N2 A/Wisconsin/67/2005 (influenza A virus); experiment: cell-based or functional assay
HA of H3N2 A/HK/1/68-MA [9] = target: HA of H3N2 A/HK/1/68-MA (influenza A virus); experiment: cell-based or functional assay; remark: listed apart in the source
[10] = target: HA of B/Harbin/7/94 (Yamagata) (influenza B virus); experiment: cell-based or functional assay
[11] = target: HA of B/Malaysia/2506/04 (Victoria) (influenza B virus); experiment: cell-based or functional assay
[12] = target: hemagglutinin (HA) of influenza B/Brisbane/60/08 (Victoria) (influenza B virus); experiment: cell-based or functional assay

B1: MD1212 (VHH)
chain: EVQLVESGGGLVQPGGSLRLSCAVSISIFDIYAMDWYRQAPGKQRDLVATSFRDGSTNYADSVKGRFTISRDNAKNTLYLQMNSLKPEDTAVYLCHVSLYRDPLGVAGGMGVYWGKGALVTVSSAAAGGGGSGGGGSGGGGSGGGGSGGGGSGGGGSGGGGSEVQLVESGGGLVQPGGSLRLSCAVSISIFDIYAMDWYRQAPGKQRDLVATSFRDGSTNYADSVKGRFTISRDNAKNTLYLQMNSLKPEDTAVYLCHVSLYRDPLGVAGGMGVYWGKGALVTVSS
Question: Which neutralization titer [1] does the source give for B1 here?
Answer: 3.7 nM

Question: What about the neutralization titer [2] of the same binder?
Answer: 14.8 nM

Question: What about the neutralization titer [3] of the same binder?
Answer: 11.7 nM

Question: What about the neutralization titer [4] of the same binder?
Answer: 49.5 nM

Question: And the Kd [5]?
Answer: 1.4 nM

B2: MD1209 (VHH)
chain: EVQLVESGGGLVQAGGSLKLSCAASGRTYAMGWFRQAPGKEREFVAHINALGTRTYYSDSVKGRFTISRDNAKNTEYLEMNNLKPEDTAVYYCTAQGQWRAAPVAVAAEYEFWGQGTQVTVSSAAAGGGGSGGGGSGGGGSGGGGSGGGGSGGGGSGGGGSEVQLVESGGGLVQAGGSLKLSCAASGRTYAMGWFRQAPGKEREFVAHINALGTRTYYSDSVKGRFTISRDNAKNTEYLEMNNLKPEDTAVYYCTAQGQWRAAPVAVAAEYEFWGQGTQVTVSS
Question: With B2 as the binder, how does the neutralization titer [1] read?
Answer: 10.1 nM

Question: And the neutralization titer [2]?
Answer: < 1000 nM

Question: And the neutralization titer [3]?
Answer: 221 nM

Question: And the neutralization titer [4]?
Answer: 109 nM

Question: And the Kd [5]?
Answer: 1.9 nM

B3: SD1034 (VHH)
VHH: EVQLVESGGGLVQAGGSLRLSCAASGTIFGIRVNTMGWYRQAPGEQRELVATITRSGGTNYADSVKDRFTISGDFAKDTVYLQMMHLKPEDTAVYYCNGRWALTDYWGQGTQVTVSS
Question: With B3 as the binder, how does the VNA titer (HA of H3N2 A/HK/1/68-MA [6]) read?
Answer: > 1000 nM

B4: SD1017 (VHH)
VHH: EVQLVESGGGLVQAGGSLRLSCAASGRTYAMAWFRQAPGKEREFVAHINALGTRAYYSDSVEGRFTISRDNAKNTGYLQMNSLEPEDTAVYVCAAGGQWRAAPVADAAQYDFWGQGTQVTVSS
Question: B4 was tested. Which VNA titer [7] did it give?
Answer: > 1000 nM

Question: And the VNA titer [8]?
Answer: > 1000 nM

Question: What about the VNA titer (HA of H3N2 A/HK/1/68-MA [9]) of the same binder?
Answer: > 1000 nM

B5: SD1049 (VHH)
VHH: EVQLVESGGGLVQAGGSLRLSCAASGRTLSLYSVGWFRQAPGKEREFVATIGWNSGRTFYVDSMKGRFTISRDNAKNTVYLQMNDLKVEDTAVYYCAAAKGPLRLSNQADYWGQGTQVTVSS
Question: For B5, which VNA titer [7] is on record?
Answer: > 1000 nM

Question: And the VNA titer (HA of H3N2 A/HK/1/68-MA [9])?
Answer: 76.1 nM

B6: MD1211 (bispecific antibody)
chain: EVQLVESGGGLVQPGGSLRLSCAVSISIFDIYAMDWYRQAPGKQRDLVATSFRDGSTNYADSVKGRFTISRDNAKNTLYLQMNSLKPEDTAVYLCHVSLYRDPLGVAGGMGVYWGKGALVTVSSAAAGGGGSGGGGSGGGGSGGGGSGGGGSGGGGSGGGGSEVQLVESGGGLVQAGGSLKLSCAASGRTYAMGWFRQAPGKEREFVAHINALGTRTYYSDSVKGRFTISRDNAKNTEYLEMNNLKPEDTAVYYCTAQGQWRAAPVAVAAEYEFWGQGTQVTVSS
Question: Which results are given for B6?
Answer: neutralization titer [1]: 4 nM; neutralization titer [2]: 7.6 nM; neutralization titer [3]: 9.9 nM; neutralization titer [4]: 19.3 nM; Kd [5]: 1.7 nM

B7: MD1210 (bispecific antibody)
chain: EVQLVESGGGLVQAGGSLKLSCAASGRTYAMGWFRQAPGKEREFVAHINALGTRTYYSDSVKGRFTISRDNAKNTEYLEMNNLKPEDTAVYYCTAQGQWRAAPVAVAAEYEFWGQGTQVTVSSAAAGGGGSGGGGSGGGGSGGGGSGGGGSGGGGSGGGGSEVQLVESGGGLVQPGGSLRLSCAVSISIFDIYAMDWYRQAPGKQRDLVATSFRDGSTNYADSVKGRFTISRDNAKNTLYLQMNSLKPEDTAVYLCHVSLYRDPLGVAGGMGVYWGKGALVTVSS
Question: With B7 as the binder, how does the neutralization titer [1] read?
Answer: 2.5 nM

Question: And the neutralization titer [2]?
Answer: 21.4 nM

Question: What about the neutralization titer [3] of the same binder?
Answer: 21.9 nM

Question: And the neutralization titer [4]?
Answer: 118 nM

Question: What about the Kd [5] of the same binder?
Answer: 0.7 nM

B8: SD1086 (VHH)
VHH: EVQLVESGGGLVQAGGSLRLSCTASGSISSIDYMRWYRQYPGKHRELVATITSGGAADSRDSVKGRFTVSRGNAANTMYLQMNNLKPEDTAVYYCNAYGLEIGAHWGRGTQVTVSS
Question: What does the source list for B8?
Answer: VNA titer [10]: > 1000 nM; VNA titer [11]: > 1000 nM

B9: SD3073 (VHH)
VHH: EVQLVESGGGLVQPGGSLRLSCAISGLSLDTYAVGWFRQAPGKEREGVSCISSGHGMTYYADSVKGRFTVSTDNSKNTLYLQMNSLRAEDTAVYYCATESRYYCSDNWPAPQRYIYWGQGTLVTVSS
Question: With B9 as the binder, how does the “VNA IC50” value [12] read?
Answer: 28 nM

B10: SD3093 (VHH)
VHH: EVQLVESGGGLVQPGGSLRLSCAISGLSLDTYAVGWFRQAPGKEREGVSCISSGHGMTYYADSVKGRFTISTDNSKNTVYLQMNSLRAEDTAVYYCATESRYYCSDNWPAPQRYIYWGQGTLVTVSS
Question: B10 was tested. Which “VNA IC50” value [12] did it give?
Answer: 32 nM

B11: SD3092 (VHH)
VHH: EVQLVESGGGLVQPGGSLRLSCAISGLSLDTYAVGWFRQAPGKEREGVSCISSGHGMTYYADSVKGRFTISTDNSKNTLYLQMNSLRAEDTAVYYCATESRYYCSDNWPAPQRYIYWGQGTLVTVSS
Question: Which “VNA IC50” value [12] does the source give for B11 here?
Answer: 51 nM

B12: SD3102 (VHH)
VHH: EVQLVESGGGLVQPGGSLRLSCAISGLSLDTYAVGWFRQAPGKEREGVSCISSGHGQTYYADSVKGRFTISTDNSKNTLYLQMNSLRAEDTAVYYCATESRYYCSDNWPAPQRYIYWGQGTLVTVSS
Question: B12 was tested. Which “VNA IC50” value [12] did it give?
Answer: > 1000 nM

B13: SD3101 (VHH)
VHH: EVQLVESGGGLVQPGGSLRLSCAISGLSLDTYAVGWFRQAPGKEREGVSCISSGHGSTYYADSVKGRFTISTDNSKNTLYLQMNSLRAEDTAVYYCATESRYYCSDNWPAPQRYIYWGQGTLVTVSS
Question: How did the “VNA IC50” value [12] turn out when B13 was run?
Answer: > 1000 nM

B14: SD3103 (VHH)
VHH: EVQLVESGGGLVQPGGSLRLSCAISGLSLDTYAVGWFRQAPGKEREGVSCISSGHGDTYYADSVKGRFTISTDNSKNTLYLQMNSLRAEDTAVYYCATESRYYCSDNWPAPQRYIYWGQGTLVTVSS
Question: With B14 as the binder, how does the “VNA IC50” value [12] read?
Answer: > 1000 nM

B15: SD3104 (VHH)
VHH: EVQLVESGGGLVQPGGSLRLSCAISGLSLDTYAVGWFRQAPGKEREGVSCISSGHGNTYYADSVKGRFTISTDNSKNTLYLQMNSLRAEDTAVYYCATESRYYCSDNWPAPQRYIYWGQGTLVTVSS
Question: Which “VNA IC50” value [12] does the source give for B15 here?
Answer: > 1000 nM

B16: SD3100 (VHH)
VHH: EVQLVESGGGLVQPGGSLRLSCAISGLSLDTYAVGWFRQAPGKEREGVSCISSGHGATYYADSVKGRFTISTDNSKNTLYLQMNSLRAEDTAVYYCATESRYYCSDNWPAPQRYIYWGQGTLVTVSS
Question: How did the “VNA IC50” value [12] turn out when B16 was run?
Answer: > 1000 nM

B17: SD3056 (VHH)
VHH: EVQLVESGGGLVQPGGSLRLSCAASGLSLDTYAMSWFRQAPGKEREGITCISSGHGFTYYADSVKGRFTISRDNSKNTLYLQMNSLQPEDTARYYCATESRYYCSDNWPAPQRYIYWGQGTQVTVSS
Question: B17 was tested. Which “VNA IC50” value [12] did it give?
Answer: > 1000 nM

B18: SD3072 (VHH)
VHH: EVQLVESGGGLVQPGGSLRLSCAASGLSLDTYAVGWFRQAPGKEREGITCISSGHGMTYYADSVKGRFTVSTDNSKNTLYLQMNSLRAEDTAVYYCATESRYYCSDNWPAPQRYIYWGQGTLVTVSS
Question: With B18 as the binder, how does the “VNA IC50” value [12] read?
Answer: 160 nM

B19: SD3074 (VHH)
VHH: EVQLVESGGGLVQPGGSLRLSCAISGLSLDTYAVGWFRQAPGKEREGITCISSGHGMTYYADSVKGRFTISTDNSKNTLYLQMNSLRAEDTAVYYCATESRYYCSDNWPAPQRYIYWGQGTLVTVSS
Question: For B19, which “VNA IC50” value [12] is on record?
Answer: 36 nM

B20: SD3070 (VHH)
VHH: EVQLVESGGGLVQPGGSLRLSCAISGLSLDTYAVGWFRQAPGKEREGITCISSGHGITYYADSVKGRFTVSTDNSKNTLYLQMNSLRAEDTAVYYCATESRYYCSDNWPAPQRYIYWGQGTLVTVSS
Question: Which “VNA IC50” value [12] does the source give for B20 here?
Answer: > 1000 nM

B21: SD3075 (VHH)
VHH: EVQLVESGGGLVQPGGSLRLSCAASGLSLDTYAVGWFRQAPGKEREGVSCISSGHGITYYADSVKGRFTISTDNSKNTLYLQMNSLRAEDTAVYYCATESRYYCSDNWPAPQRYIYWGQGTLVTVSS
Question: Which “VNA IC50” value [12] does the source give for B21 here?
Answer: > 1000 nM

B22: SD3069 (VHH)
VHH: EVQLVESGGGLVQPGGSLRLSCAISGLSLDTYAVGWFRQAPGKEREGITCISSGHGMTYYADSVKGRFTVSTDNSKNTLYLQMNSLRAEDTAVYYCATESRYYCSDNWPAPQRYIYWGQGTLVTVSS
Question: How did the “VNA IC50” value [12] turn out when B22 was run?
Answer: 56 nM

B23: SD3076 (VHH)
VHH: EVQLVESGGGLVQPGGSLRLSCAASGLSLDTYAVGWFRQAPGKEREGVSCISSGHGLTYYADSVKGRFTISTDNSKNTLYLQMNSLRAEDTAVYYCATESRYYCSDNWPAPQRYIYWGQGTLVTVSS
Question: With B23 as the binder, how does the “VNA IC50” value [12] read?
Answer: > 1000 nM

B24: SD3071 (VHH)
VHH: EVQLVESGGGLVQPGGSLRLSCAISGLSLDTYAVGWFRQAPGKEREGITCISSGHGLTYYADSVKGRFTVSTDNSKNTLYLQMNSLRAEDTAVYYCATESRYYCSDNWPAPQRYIYWGQGTLVTVSS
Question: B24 was tested. Which “VNA IC50” value [12] did it give?
Answer: > 1000 nM
